Data as given in paper PMC5042579.

Key:
GFP-EB1 (human) (human) = GFP-EB1 (human) (human) (UniProt Q15691); experiment: TIRF microscopy of reconstituted dynamic microtubules
[1] = biological target: biotinylated EB1 (mouse end-binding protein 1) (mouse) (UniProt Q61166); experiment: pull-down
[2] = biological target: microtubules of tubulin purified from bovine brain (bovine) (UniProt Q6B856); experiment: co-sedimentation; settings: scale: molecule per 100 dimers of polymerized tubulin

Sequence of GFP-EB1 (human) (human) (Q15691 whole entry): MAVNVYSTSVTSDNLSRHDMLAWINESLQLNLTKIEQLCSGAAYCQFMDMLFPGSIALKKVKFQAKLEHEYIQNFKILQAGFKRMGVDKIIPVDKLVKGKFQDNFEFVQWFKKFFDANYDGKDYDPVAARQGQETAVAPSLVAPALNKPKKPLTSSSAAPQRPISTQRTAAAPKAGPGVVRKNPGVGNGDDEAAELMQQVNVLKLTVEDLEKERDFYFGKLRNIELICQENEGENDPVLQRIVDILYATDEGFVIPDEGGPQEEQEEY
Sequence of biotinylated EB1 (mouse end-binding protein 1) (mouse) (Q61166 whole entry): as the sequence (Q15691 whole entry) above, with D123E, N147S, T154G, S157T, S165A, A170T, V179M, N201K counted along it

| GFP-EB1 comet intensity at microtubule ends with 75 nM tau protein (GFP-EB1 (human) (human)) [a.u.] | percent bound to EB1 compared with tau [1] [%] | tau molecules bound per 100 dimers of polymerized tubulin [2] | Substance |
| --- | --- | --- | --- |
| 7 | – | – | P2R′-tau (tau fragment from P2 to R′) (from UniProt P10636-7 169-371) (domain or fragment) |
| – | 50.1 | 1 | S262E-tau (phosphomimetic tau, serine 262 replaced by glutamate) (natural protein) |
